Assay results from patent US20190359687A1 (Bayer, published 2019).
Changes are numbered by the printed parent chain. Numbers in names are those of the source.

T1: recombinant human glycophorin A ectodomain protein (human, UniProt P02724 20-91)
T1 construct: 72 amino acids of the extracellular region; also called Hu-rec GPA
T1 sequence: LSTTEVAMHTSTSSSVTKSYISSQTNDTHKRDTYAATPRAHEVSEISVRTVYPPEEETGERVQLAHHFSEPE

T2: human glycophorin A on human red blood cells or red blood cell membranes (human, UniProt P02724 20-150)
T2 construct: whole, on cells; also called hRBC; human RBC membranes
T2 sequence (looked up): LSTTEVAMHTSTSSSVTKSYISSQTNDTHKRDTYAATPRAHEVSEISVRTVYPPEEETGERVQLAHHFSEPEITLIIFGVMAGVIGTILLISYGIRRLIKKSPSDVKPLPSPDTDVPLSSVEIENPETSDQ

T3: native human glycophorin A protein (human, UniProt P02724 20-150)
T3 construct: mature; also called Hu-nat GPA
T3 sequence (looked up): T2 sequence (looked up)

B1: TPP-5337, Hu6C12-24 Fab variant VH: (Q97A, T98R) (Fab, V domains shown)
VH: EVQLVQSGAEVKKPGASVKVSCKASGYTFTTYTIHWVRQAPGQGLEWIGYINPSSDYTRYNPKFKDRVTLTTDKSTSTAYMELRSLRSDDTAVYYCARGTRDYWGQGTTVTVSS
VL: DIQLTQSPSFLSASVGDRVTITCSAASSVSYIYWFQQKPGKAPKLLIYSTSTLPSGVPSRFSGSGSGTEYTLTISSLQPEDFATYYCHQRNSFPFTFGQGTKLEIKR
notes: Built on the parental Fab TPP-4935
B2: TPP-5338, Hu6C12-24 Fab variant VH: (E1Q, I48M, L70M, T72R, K74T, R84S, D89E) (Fab, V domains shown)
VH: B1 VH with E1Q, I48M, L70M, T72R, K74T, R84S, D89E, A97Q, R98T
VL: B1 VL
notes: as for B1
B3: TPP-5339, Hu6C12-24 Fab variant VH: (E1Q, I48M, L70M, T72R, K74T, R84S, D89E, Q97A, T98R) (Fab, V domains shown)
VH: B1 VH with E1Q, I48M, L70M, T72R, K74T, R84S, D89E
VL: B1 VL
notes: as for B1
B4: TPP-5356, Hu6C12-24 Fab variant VL: (F35Y, Y70F) (Fab, V domains shown)
VH: B1 VH with A97Q, R98T
VL: B1 VL with F35Y, Y70F
notes: as for B1
B5: TPP-5674, Hu6C12-24 Fab variant VH: (I48M, L70M) (Fab, V domains shown)
VH: B1 VH with I48M, L70M, A97Q, R98T
VL: B1 VL
notes: as for B1
B6: TPP-5675, Hu6C12-24 Fab variant VH: (I48M, L70M, T72R) (Fab, V domains shown)
VH: B1 VH with I48M, L70M, T72R, A97Q, R98T
VL: B1 VL
notes: as for B1
B7: TPP-5676, Hu6C12-24 Fab variant VH: (I48M, D66G) (Fab, V domains shown)
VH: B1 VH with I48M, D66G, A97Q, R98T
VL: B1 VL
notes: as for B1
B8: TPP-5677, Hu6C12-24 Fab variant VH: (I48M, D66G, L70M) (Fab, V domains shown)
VH: B1 VH with I48M, D66G, L70M, A97Q, R98T
VL: B1 VL
notes: as for B1
B9: TPP-5678, Hu6C12-24 Fab variant VH: (I48M, D66G, L70M, T72R) (Fab, V domains shown)
VH: B1 VH with I48M, D66G, L70M, T72R, A97Q, R98T
VL: B1 VL
notes: as for B1
B10: TPP-5695, Hu6C12-24 Fab variant VH: (L70M, T72R) (Fab, V domains shown)
VH: B1 VH with L70M, T72R, A97Q, R98T
VL: B1 VL
notes: as for B1
B11: TPP-5696, Hu6C12-24 Fab variant VH: (D66G, L70M) (Fab, V domains shown)
VH: B1 VH with D66G, L70M, A97Q, R98T
VL: B1 VL
notes: as for B1
B12: TPP-5697, Hu6C12-24 Fab variant VH: (D66G, L70M, T72R) (Fab, V domains shown)
VH: B1 VH with D66G, L70M, T72R, A97Q, R98T
VL: B1 VL
notes: as for B1

Biological target: T1, recombinant human glycophorin A …
Test: ELISA, Fab on coated recombinant human GPA ectodomain

Compared with B1, B2 is higher in “binding in ELISA relative to parental Fab” value: 0.1 relative to parental Fab for the first, 0.4 relative to parental Fab for the second.

First: B3
Second: B4
The “binding in ELISA relative to parental Fab” value of the first is lower: 0 relative to parental Fab for the first, 0.6 relative to parental Fab for the second.

First: B5
Second: B6
The “binding in ELISA relative to parental Fab” value of the first is higher: 1.5 relative to parental Fab for the first, 1.1 relative to parental Fab for the second.

First: B7
Second: B8
The “binding in ELISA relative to parental Fab” value of the first is lower: 1.5 relative to parental Fab for the first, 1.8 relative to parental Fab for the second.

Compared with B9, B10 is lower in “binding in ELISA relative to parental Fab” value: 1.1 relative to parental Fab for the first, 1 relative to parental Fab for the second.

First: B11
Second: B12
The “binding in ELISA relative to parental Fab” value of the first is lower: 1.2 relative to parental Fab for the first, 1.3 relative to parental Fab for the second.

Biological target: T4, Cynomolgus monkey recombinant glycophorin A ectodomain (Cynomolgus monkey)
T4 construct: extracellular domain
Test: ELISA, Fab on coated recombinant cyno GPA ectodomain

Compared with B5, B6 is lower in “binding in ELISA relative to parental Fab” value: 1.1 relative to parental Fab for the first, 1 relative to parental Fab for the second.

First: B7
Second: B8
The “binding in ELISA relative to parental Fab” value of the first is lower: 1.1 relative to parental Fab for the first, 1.2 relative to parental Fab for the second.

Compared with B9, B10 is lower in “binding in ELISA relative to parental Fab” value: 1.2 relative to parental Fab for the first, 1.1 relative to parental Fab for the second.

B11 and B12 are the same in “binding in ELISA relative to parental Fab” value: 1.2 relative to parental Fab for the first, 1.2 relative to parental Fab for the second.

Biological target: T2, human glycophorin A on human red blood …
Test: ELISA, Fab on coated human RBC membranes
Procedure: These membranes are prepared by first isolating red blood cells from citrated whole blood. Citrated whole blood is layered on to Ficol and centrifuged at low speed for 20 minutes to pellet the red blood cells. The supernatant containing plasma and other blood cells is discarded and the red blood cell pellet is subsequently washed 3 times in 10 cell volumes of phosphate buffered saline (PBS). A 10 ml pellet of purified red blood cells is resuspended in 30 ml of cold low osmorality 20 mM phosphate buffer (pH7.4) and incubated for 30 mins to break open the RBC. After Centrifugation at 10,000 rpm for 30 min at 5° C. the hemoglobin containing supernatant is discarded. To the membrane pellet another 30 ml of 20 mM phosphate buffer is added and the sample centrifuged again at 10,000 rpm for 30 min at 5° C. to pellet the membrane fraction. This wash and centrifugation step is repeated another 4 times. The red blood cell membranes are then resuspended in 20 mL of PBS to achieve an equivalent of approximately 2.5E9 cells/mL and stored frozen at −20° C. Binding of antibodies to RBC ghost can be measured by ELISA in which the RBC ghost suspension (5×10⁶ in 100 ul PBS) was added to each well of flat bottom 96-well ELISA microtiter plates (2HB, Immunolon) and the plates incubated overnight at 4° C. The plates were blocked with Starting blocking buffer (Thermo Fisher) for 2 hours at room temperature (RT). Antibodies or other test molecules were added to each well and incubated for 1.5 hours at RT. After 4 washes 100 ul of an appropriate detection antibody was added to each well and incubated for 1 hour at RT. After 4 washes the detection antibody was measured using appropriate detection reagents.

First: B1
Second: B2
The “binding in ELISA relative to parental Fab” value of the first is lower: 0.3 relative to parental Fab for the first, 0.5 relative to parental Fab for the second.

B4 and B5 are the same in “binding in ELISA relative to parental Fab” value: 0.7 relative to parental Fab for the first, 0.7 relative to parental Fab for the second.

B6 and B7 are the same in “binding in ELISA relative to parental Fab” value: 0.7 relative to parental Fab for the first, 0.7 relative to parental Fab for the second.

B8 and B9 are the same in “binding in ELISA relative to parental Fab” value: 0.8 relative to parental Fab for the first, 0.8 relative to parental Fab for the second.

First: B10
Second: B11
The “binding in ELISA relative to parental Fab” value of the first is lower: 0.9 relative to parental Fab for the first, 1 relative to parental Fab for the second.

B12 was tested, and the “binding in ELISA relative to parental Fab” value was 1.1 relative to parental Fab.

Biological target: T3, native human glycophorin A protein
Test: ELISA, Fab on coated native human GPA

First: B1
Second: B2
The “binding in ELISA relative to parental Fab” value of the first is lower: 0.1 relative to parental Fab for the first, 0.5 relative to parental Fab for the second.

First: B3
Second: B4
The “binding in ELISA relative to parental Fab” value of the first is lower: 0 relative to parental Fab for the first, 0.7 relative to parental Fab for the second.

First: B5
Second: B6
The “binding in ELISA relative to parental Fab” value of the first is higher: 1.4 relative to parental Fab for the first, 0.8 relative to parental Fab for the second.

First: B7
Second: B8
The “binding in ELISA relative to parental Fab” value of the first is lower: 1.3 relative to parental Fab for the first, 1.8 relative to parental Fab for the second.

First: B9
Second: B10
The “binding in ELISA relative to parental Fab” value of the first is higher: 1.2 relative to parental Fab for the first, 0.9 relative to parental Fab for the second.

First: B11
Second: B12
The “binding in ELISA relative to parental Fab” value of the first is higher: 1.3 relative to parental Fab for the first, 1.2 relative to parental Fab for the second.

Biological target: T2, human glycophorin A on human red blood …
Test: SPR (Biacore), Fab over human RBC membranes, 1:1 fit;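 further: human RBC membrane preparations captured on an L1 sensor surface, with antibody passed over them as analyte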
Procedure: Kinetic analysis of the antibody binding to human red blood cell membranes was also performed using surface plasmon resonance (SPR) using a Biacore instrument. In this assay membranes prepared from human red blood cells were attached to a L1 sensor matrix and antibodies were flowed over the RBC membranes.

Going from B6 to B9, the Kd falls from 87 nM to 37 nM (2.4-fold).

B6 and B9 are within 1.5-fold of each other in koff: 0.036 s⁻¹ for the first, 0.041 s⁻¹ for the second.

Going from B6 to B9, the kon rises from 420000 M⁻¹ s⁻¹ to 1.1e+06 M⁻¹ s⁻¹ (2.6-fold).
